We go through two molecules from paper PMC4407695 (Journal of molecular biology, 2014).

B1: NHERF1 (natural protein, UniProt O14745 1-358, looked up)
chain: MSADAAAGAPLPRLCCLEKGPNGYGFHLHGEKGKLGQYIRLVEPGSPAEKAGLLAGDRLVEVNGENVEKETHQQVVSRIRAALNAVRLLVVDPETDEQLQKLGVQVREELLRAQEAPGQAEPPAAAEVQGAGNENEPREADKSHPEQRELRPRLCTMKKGPSGYGFNLHSDKSKPGQFIRSVDPDSPAEASGLRAQDRIVEVNGVCMEGKQHGDVVSAIRAGGDETKLLVVDRETDEFFKKCRVIPSQEHLNGPLPVPFTNGEIQKENSREALAEAALESPRPALVRSASSDTSEELNSQDSPPKQDSTAPSSTSSSDPILDFNISLAMAKERAHQKRSSKRAPQMDWSKKNELFSNL
B2: FERM domain of Merlin (domain or fragment, human, UniProt P35240 22-311, looked up)
chain: FTVRIVTMDAEMEFNCEMKWKGKDLFDLVCRTLGLRETWFFGLQYTIKDTVAWLKMDKKVLDHDVSKEEPVTFHFLAKFYPENAEEELVQEITQHLFFLQVKKQILDEKIYCPPEASVLLASYAVQAKYGDYDPSVHKRGFLAQEELLPKRVINLYQMTPEMWEERITAWYAEHRGRARDEAEMEYLKIAQDLEMYGVNYFAIRNKKGTELLLGVDALGLHIYDPENRLTPKISFPWNEIRNISYSDKEFTIKPLDKKIDVFKFNSSKLRVNKLILQLCIGNHDLFMRRR

For experiment [1], the target named is FERM domain of Ezrin (UniProt P15311 2-296). The experiment can be described thus: ITC.
Chain of FERM domain of Ezrin (P15311 2-296): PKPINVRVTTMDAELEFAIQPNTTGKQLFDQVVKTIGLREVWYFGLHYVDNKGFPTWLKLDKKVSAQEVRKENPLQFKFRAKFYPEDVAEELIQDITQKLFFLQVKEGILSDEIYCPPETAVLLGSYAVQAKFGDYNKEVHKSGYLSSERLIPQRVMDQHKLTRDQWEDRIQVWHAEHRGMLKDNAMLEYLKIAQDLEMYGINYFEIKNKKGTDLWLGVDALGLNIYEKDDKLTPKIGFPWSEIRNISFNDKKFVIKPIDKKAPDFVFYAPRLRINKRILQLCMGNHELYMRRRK
Experiment [2] concerns the target B2. Description: ITC.
In experiment [3] the target is T1, wild-type full-length Merlin(wt) (human, UniProt P35240 1-595).
T1 sequence (looked up): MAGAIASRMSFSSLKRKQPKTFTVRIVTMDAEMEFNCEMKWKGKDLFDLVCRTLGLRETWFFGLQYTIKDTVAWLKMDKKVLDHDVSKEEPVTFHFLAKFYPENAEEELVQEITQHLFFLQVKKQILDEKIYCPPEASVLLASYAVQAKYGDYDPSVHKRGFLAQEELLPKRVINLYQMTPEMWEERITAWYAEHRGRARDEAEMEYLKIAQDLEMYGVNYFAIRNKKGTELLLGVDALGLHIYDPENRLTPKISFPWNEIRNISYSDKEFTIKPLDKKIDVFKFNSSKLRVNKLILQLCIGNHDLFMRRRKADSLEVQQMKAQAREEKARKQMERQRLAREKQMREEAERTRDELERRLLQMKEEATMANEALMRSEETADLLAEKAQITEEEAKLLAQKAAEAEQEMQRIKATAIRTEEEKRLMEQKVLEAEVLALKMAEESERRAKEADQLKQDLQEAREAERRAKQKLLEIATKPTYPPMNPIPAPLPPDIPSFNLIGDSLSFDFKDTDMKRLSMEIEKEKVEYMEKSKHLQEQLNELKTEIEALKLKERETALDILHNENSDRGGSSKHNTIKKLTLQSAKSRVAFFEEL
The experiment can be described thus: ITC.

The target of experiment [4] is T2, Merlin(S518D) (human, UniProt P35240 1-595, S518D).
T2 sequence (looked up): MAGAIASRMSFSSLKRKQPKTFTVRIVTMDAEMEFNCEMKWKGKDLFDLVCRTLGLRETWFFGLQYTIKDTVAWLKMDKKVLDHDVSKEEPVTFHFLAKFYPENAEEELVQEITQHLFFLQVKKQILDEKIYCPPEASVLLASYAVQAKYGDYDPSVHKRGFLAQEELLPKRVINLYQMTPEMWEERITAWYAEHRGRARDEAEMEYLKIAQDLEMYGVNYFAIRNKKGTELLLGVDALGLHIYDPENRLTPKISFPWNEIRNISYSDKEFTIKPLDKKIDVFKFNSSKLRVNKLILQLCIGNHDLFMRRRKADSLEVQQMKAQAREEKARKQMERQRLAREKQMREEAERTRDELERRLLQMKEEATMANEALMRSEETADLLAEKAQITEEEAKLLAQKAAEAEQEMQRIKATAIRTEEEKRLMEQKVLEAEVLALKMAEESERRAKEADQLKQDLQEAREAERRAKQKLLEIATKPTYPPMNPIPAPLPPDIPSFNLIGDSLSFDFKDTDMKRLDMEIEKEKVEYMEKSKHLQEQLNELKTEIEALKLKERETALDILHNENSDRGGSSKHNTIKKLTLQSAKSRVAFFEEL
The experiment can be described thus: ITC.

Experiment [5] concerns the target T1, wild-type full-length Merlin(wt). The experiment can be described thus: SPR.
Experiment [6] has as its target T2, Merlin(S518D). The experiment can be described thus: SPR.
Experiment [7] deals with B1. The experiment can be described thus: ITC.
Experiment [8] has as its target B1. The experiment can be described thus: SPR.

As for B1, the “stoichiometry N” value in experiment [1] amounted to 1.06; in experiment [2], 0.93; in experiment [3], 0.37; in experiment [4], 0.39. For the same molecule, the Kd in experiment [3] is 0.855 ± 0.16 µM; in experiment [4], 1.57 ± 0.322 µM; in experiment [5], 0.956 ± 0.07 µM; in experiment [6] it was 1.24 ± 0.22 µM.

B2: the Kd was 0.649 ± 0.018 µM in experiment [7] and 0.459 ± 0.038 µM in experiment [8].
